Data on two molecules can be found in patent US6440702.

The target in test [1] is T1, human CNTF receptor alpha component on MG87/CNTFR fibroblasts (human, UniProt P26992 23-342).
T1 construct: whole, on cells; Mouse fibroblast line transfected with the human CNTFalpha receptor gene; also called CNTFRalpha; MG87/huCNTFR
T1 sequence (looked up): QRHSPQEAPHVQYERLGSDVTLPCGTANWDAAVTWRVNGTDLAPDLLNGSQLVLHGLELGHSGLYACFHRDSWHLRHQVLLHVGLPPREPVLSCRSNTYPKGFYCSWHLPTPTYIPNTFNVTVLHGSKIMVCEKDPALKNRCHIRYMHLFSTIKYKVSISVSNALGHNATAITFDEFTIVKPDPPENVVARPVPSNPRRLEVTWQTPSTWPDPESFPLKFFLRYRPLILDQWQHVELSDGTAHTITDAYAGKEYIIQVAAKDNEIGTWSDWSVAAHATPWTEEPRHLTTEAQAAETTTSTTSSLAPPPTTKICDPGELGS
Kind of test: displacement of 125I-rat CNTF from MG87/CNTFR cells (human CNTF receptor). The protocol:
MG87/CNTFR is a fibroblast cell line transfected with the human CNTFα receptor gene (Squinto, et al., 1990, Neuron 5:757–766; Davis et al., 1991, Science 253:59–63). Binding Assays Binding was performed directly on cell monolayers. Cells in culture wells were washed once with assay buffer consisting of phosphate buffered saline (PBS; pH 7.4), 0.1 mM bacitracin, 1 mM PMSF, 1 µg/ml leupeptin, and 1 mg/ml BSA. […] Non-specific binding was determined in the presence of 1,000-fold excess of unlabelled CNTF. Specific binding towards MG87/CNTFR was 80–90%. Data were analyzed using the […] program (ISI, Philadelphia, Pa.).
For orientation: Loss of bound radioactivity is the signal in a displacement assay; it reports binding, not function.

For test [2], the target named is T2, rat CNTF receptor on rat superior cervical ganglia (SCG) neurons (rat, UniProt Q08406 23-342).
T2 construct: whole, on cells; also called rat receptor; SCGs
T2 sequence (looked up): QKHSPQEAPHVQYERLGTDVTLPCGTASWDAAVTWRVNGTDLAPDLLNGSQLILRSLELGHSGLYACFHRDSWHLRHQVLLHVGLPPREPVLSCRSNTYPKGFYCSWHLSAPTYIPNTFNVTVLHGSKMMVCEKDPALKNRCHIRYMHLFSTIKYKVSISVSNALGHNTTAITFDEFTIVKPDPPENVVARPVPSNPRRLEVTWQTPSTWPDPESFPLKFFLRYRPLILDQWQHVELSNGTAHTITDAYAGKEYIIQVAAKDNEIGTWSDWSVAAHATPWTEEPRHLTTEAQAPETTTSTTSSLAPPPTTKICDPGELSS
Kind of test: displacement of 125I-rat CNTF from rat SCG neuron monolayers.

B1: recombinant human CNTF (ciliary neurotrophic factor) (ligand)
chain: AFTEHSPLTPHRRDLCSRSIWLARKIRSDLTALTESYVKHQGLNKNINLDSADGMPVASTDQWSELTEAERLQENLQAYRTFHVLLARLLEDQQVHFTPTEGDFHQAIHTLLLQVAAFAYQIEELMILLEYKIPRNEADGMPINVGDGGLFEKKLWGLKVLQELSQWTVRSIHDLRFISSHQTGIPARGSHYIANNKKM
notes: Position numbers (C17, Q63) count the methionine as 1; also called rHCNTF; hCNTF
Take B1: in test [1], the IC50 was found to be 30 nM and the “fold less potent than rat CNTF” value stood at 12 fold. In addition, in test [2], the IC50 worked out at 25 nM and the “fold less potent than unlabelled rat CNTF in displacing 125I-rat CNTF” value is 90 fold.

B2: recombinant rat CNTF (ciliary neurotrophic factor) (ligand)
chain: AFAEQTPLTLHRRDLCSRSIWLARKIRSDLTALMESYVKHQGLNKNINLDSVDGVPVASTDRWSEMTEAERLQENLQAYRTFQGMLTKLLEDQRVHFTPTEGDFHQAIHTLMLQVDAFAYQLEELMVLLEQKIPENEADGMPATVGDGGLFEKKLWGLKVLQELSQWTVRSIHDLRVISSHQMGISALESHYGAKDKQM
notes: also called unlabelled rat CNTF
As for B2, the results for the IC50 in test [1] and in test [2] were 2.8 nM and 0.28 nM, respectively.

For orientation: IC50 means the concentration that inhibits the measured activity by half.
